# Reference: PMC3272479 (Nature structural & molecular biology, 2012)
# Target: the molecule itself
# Experiment: crystal structure
protein,measurement,value
KirBac3.1 S129R mutant channel (natural protein) MTGGMKPPARKPRILNSDGSSNITRLGLEKRGWLDDHYHDLLTVSWPVFITLITGLYLVTNALFALAYLACGDVIENARPGSFTDAFFFSVQTMATIGYGKLIPIGPLANTLVTLEALCGMLGLAVAARLIYARFTRPTAGVLFSSRMVISDFEGKPTLMMRLANLRIEQIIEADVHLVLVRSEISQEGMVFRRFHDLTLTRSRSPIFSLSWTVMHPIDHHSPIYGETDETLRNSHSEFLVLFTGHHEAFAQNVHARHAYSCDEIIWGGHFVDVFTTLPDGRRALDLGKFHEIAQ,stoichiometry N,4
